Assays:
CDCP1 = target: T1, CDCP1 (UniProt Q9H5V8 30-836, limits assumed); assay: statement in Example 2; no direct binding assay, only degradation on HT-1376 cells
T1 construct: whole, on cells; Endogenous protein on HT-1376 cells; also called cell surface CDCP1
T1 sequence (looked up): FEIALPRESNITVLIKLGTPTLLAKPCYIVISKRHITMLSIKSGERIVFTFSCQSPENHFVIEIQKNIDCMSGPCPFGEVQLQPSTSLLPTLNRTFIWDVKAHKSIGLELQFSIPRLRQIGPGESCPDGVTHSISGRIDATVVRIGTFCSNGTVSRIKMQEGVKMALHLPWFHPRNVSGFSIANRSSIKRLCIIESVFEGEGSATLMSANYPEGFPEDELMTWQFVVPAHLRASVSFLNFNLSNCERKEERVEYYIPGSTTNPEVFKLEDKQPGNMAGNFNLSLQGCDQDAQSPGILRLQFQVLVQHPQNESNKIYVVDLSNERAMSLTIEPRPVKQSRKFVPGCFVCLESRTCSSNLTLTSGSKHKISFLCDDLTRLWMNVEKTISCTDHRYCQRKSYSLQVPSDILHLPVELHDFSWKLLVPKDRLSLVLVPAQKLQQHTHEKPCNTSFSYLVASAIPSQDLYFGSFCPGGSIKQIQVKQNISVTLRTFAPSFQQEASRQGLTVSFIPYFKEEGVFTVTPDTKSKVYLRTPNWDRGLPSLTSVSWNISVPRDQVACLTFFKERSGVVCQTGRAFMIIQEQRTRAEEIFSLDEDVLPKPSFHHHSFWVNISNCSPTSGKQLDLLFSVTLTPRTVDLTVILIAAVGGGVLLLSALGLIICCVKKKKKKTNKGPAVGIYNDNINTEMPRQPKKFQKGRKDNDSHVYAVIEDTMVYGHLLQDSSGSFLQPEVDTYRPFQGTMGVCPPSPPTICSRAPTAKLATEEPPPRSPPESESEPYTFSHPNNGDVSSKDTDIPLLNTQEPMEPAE
Description: (§1) After incubation at 37° C. for the designated time point, cells were washed with phosphate-buffered saline (PBS), lifted with versene, and harvested by centrifugation at 300×g for 5 min at 4° C. Samples were then tested by western blotting or flow cytometry to quantify protein levels.
(§2) Western blotting: Cell pellets were lysed with 1×RIPA buffer containing cOmplete mini protease inhibitor cocktail (Sigma-Aldrich) at 4° C. for 40 min. Lysates were centrifuged at 16,000×g for 10 min at 4° C. and protein concentrations were normalized using BCA assay (Pierce). 4×NuPAGE LDS sample buffer (Invitrogen) and 2-mercaptoethanol (BME) was added to the lysates and boiled for 10 min. Equal amounts of lysates were loaded onto a 4-12% Bis-Tris gel and ran at 200V for 37 min. The gel was incubated in 20% ethanol for 10 min and transferred onto a polyvinylidene difluoride (PVDF) membrane. The membrane was blocked in PBS with 0.1% Tween-20+5% bovine serum albumin (BSA) for 30 min at room temperature with gentle shaking. Membranes were incubated overnight with primary antibodies at respective dilutions at 4° C. with gentle shaking in PBS+0.2% Tween-20+5% BSA. […] Band intensities were quantified using Image Studio Software (LI-COR). […]

Nectin-4 = target: T2, Nectin-4 (UniProt Q96NY8 32-510, limits assumed); assay: as above
T2 construct: whole, on cells; Endogenous receptor on HT-1376 cells
T2 sequence (looked up): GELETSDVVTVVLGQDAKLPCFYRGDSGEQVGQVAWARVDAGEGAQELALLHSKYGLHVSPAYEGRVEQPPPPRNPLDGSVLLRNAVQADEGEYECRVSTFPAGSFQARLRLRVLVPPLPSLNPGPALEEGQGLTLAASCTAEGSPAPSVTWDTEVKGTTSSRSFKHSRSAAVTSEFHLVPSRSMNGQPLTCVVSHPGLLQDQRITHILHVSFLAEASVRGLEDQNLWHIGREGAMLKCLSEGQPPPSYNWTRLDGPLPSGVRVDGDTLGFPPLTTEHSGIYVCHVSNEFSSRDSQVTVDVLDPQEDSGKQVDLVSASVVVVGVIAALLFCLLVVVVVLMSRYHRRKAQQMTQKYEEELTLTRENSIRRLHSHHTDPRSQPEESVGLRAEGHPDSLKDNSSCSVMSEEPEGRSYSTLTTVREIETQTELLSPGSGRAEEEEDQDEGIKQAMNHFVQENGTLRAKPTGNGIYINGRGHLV
Description: as §1, §2

binding result (CDCP1): binds
binding result (Nectin-4): binds
B1: Enfortumab-4A06 bispecific antibody (bispecific antibody)
heavy 1: not shown
light 1: DIQMTQSPSSVSASVGDRVTITCRASQGISGWLAWYQQKPGKAPKFLIYAASTLQSGVPSRFSGSGSGTDFTLTISSLQPEDFATYYCQQANSFPPTFGGGTKVEIKRTVAAPSVFIFPPSDEQLKSGTASVVCLLNNFYPREAKVQWKVDNALQSGNSQESVTEQDSKDSTYSLSSTLTLSKADYEKHKVYACEVTHQGLSSPVTKSFNRGEC
heavy 2: EISEVQLVESGGGLVQPGGSLRLSCAASGFNLSYYYIHWVRQAPGKGLEWVASIYSSSSYTSYADSVKGRFTISADTSKNTAYLQMNSLRAEDTAVYYCARAYYGFDYWGQGTLVTVSSASTKGPSVFPLAPSSKSTSGGTAALGCLVKDYFPEPVTVSWNSGALTSGVHTFPAVLQSSGLYSLSSVVTVPSSSLGTQTYICNVNHKPSNTKVDKKVEPKSCDKTHTCPPCPAPELLGGPSVFLFPPKPKDTLMISRTPEVTCVVVDVSHEDPEVKFNWYVDGVEVHNAKTKPREEQYNSTYRVVSVLTVLHQDWLNGKEYKCKVSNKALPAPIEKTISKAKGQPREPQVYTLPPIRELMTSNQVSLSCAVKGFYPSDIAVEWESNGQPENNYKTTPPVLDSDGSFFLVSKLTVDKSRWQQGNVFSCSVMHEALHNHYTQKSLSLSPGK
light 2: DIQMTQSPSSLSASVGDRVTITCRASQSVSSAVAWYQQKPGKAPKLLIYSASSLYSGVPSRFSGSRSGTDFTLTISSLQPEDFATYYCQQSYYYYPITFGQGTKVEIKRTVAAPSVFIFPPSDSQLKSGTASVVCLLNNFYPREAKVQWKVDNALQSGNSQESVTEQDSKDSTYSLSSTLTLSKADYEKHKVYACEVTHQGLSSPVTKSFNRGECGGSDYKDDDDK
notes: It has four different chains; also called Enfortumab (Nectin-4)-4A06 (CDCP1); Enfortumab-4A06 antibody
